The values that follow come from PMC2140037 (The Journal of Cell Biology, 2007).

For assay [1], the target named is GST-Sed5H2 (yeast) (UniProt Q01590). Nature of the assay: pull-down.
In assay [2] the target is GST-Sed5H1 (yeast) (UniProt Q01590). The experiment in a line: pull-down.
In assay [3] the target is GST-Sed5H1 + 2 (yeast) (UniProt Q01590). Nature of the assay: pull-down.
The target in assay [4] is rat Cog3p (rat (endogenous in rat liver Golgi membranes)). Nature of the assay: co-IP.
Assay [5] deals with yeast COG complex (purified from TAP-yCog2 cells) (yeast, UniProt P53079;P53271;P40094;Q06096;P53951;P53959;P53195;Q04632). The experiment in a line: pull-down.

“yeast COG complex (purified from TAP-yCog2 cells), P53079;P53271;P40094;Q06096;P53951;P53959;P53195;Q04632”: the fold less efficient binding than to the cytosolic portion of Sed5p and Sed5H3 in assay [1], in assay [2] and in assay [3] was 4 fold in each case.

B1: Golgi matrix protein GM130 (rat liver Golgi) (natural protein)
chain: MWPPRFPPPRPGMSEETRQSKLAAAKKKLREYQQKNSPGVPAGAKKKKKIKNGHSPERTSASDCQSAENVPTDHTAPAPPSTAAATMFLGVVPSPDADLIQSHDAGNCSNLMEETKTFSSTESLRQLSQQLNGLVSESTSYINGEGLTSSNMKELESRYQELAVALDSSYVTNKQLSSTIEELKQQNQDTLDQLEKEKKDYQQKLAKEQGALREQLQVHIQTIGILVSEKAELQTALAHTQQAARQKAGESEDLASRLQSSRQRVGELERTLSTVSTQQKQADRYNKDLTKERDALKLELYKNGKSNEDLRQQNSELEEKLRVLVAEKAAAQLGAEELQKKLEMSELLLQQFSSQSEASGSNEQLQQAMEERAQLESHVGQLMESLKQLQVERDQYAENLKGESAMWQQRVQQMAEQVHALKEEKEQRESQVQELEASLAELRSQMEEPPPPEPPTGPSEAEERLQGEVEQLQKELEGLTGQLRAQVQDNESLSHLNREQEGRLLELEREAQHWSEQAEERKQILESMQSDRTTISRALSQNRELKEQLAELQNGFVRLTNENMEITSALQSEQHVKKELARKLGELQERLGELKETVELKSQEAQGLQEQRDQCLSHLQQYAAAYQQHLTAYEQLTSEKEALHKQLLLQTQLMDQLQHEEVQGKMAAEMARQELQEAQERLKASSQENQQLQAQLSLLVLPGEDMDQEEQDEEVPQPSLTIPEDLVSREAMVAFCNAAIARAEEEQARLRVQLREQKARCRSLAHLAAPVQSKLEKEAVVPRDMGDSVSEESNQALHVAMEKLQNRFLEVMQEKVELKERVEELEHCCIQLSGETDTIGEYIALYQNQRAVLKARHLEKEEYISRLAQDKEEMKVKLLELQELVLRLVNERNEWQGKFLAVSQNPADVPAPVPTGSQEFGAADQQGDLREVSLADDTEPAQGEAGVPAPQENPTAQQIMQLLREIQNPQERPGLGSNPCIPFFYRADENDEVKIMVI
With B1, the percent coimmunoprecipitated in assay [4] is 10%.

B2: Syntaxin5a (rat liver Golgi) (natural protein)
chain: MSCRDRTQEFLSACKSLQSRQNGIQTNKPALHATRQCSEFTLMARRIGKDLSNTFAKLEKLTILAKRKSLFDDKAVEIEELTYIIKQDINSLNKQIAQLQDFVRAKGSQSGRHLQTHSNTIVVSLQSKLASMSNDFKSVLEVRTENLKQQRNRREQFSRAPVSALPLAPNNLGGGPIVLGGESRASRDVAIDMMDPRTSQQLQLIDEQDSYIQSRADTMQNIESTIVELGSIFQQLAHMVKEQEETIQRIDENVLGAQLDVEAAHSEILKYFQSVTSNRWLMVKIFLILIVFFIIFVVFLA
The molecule B2 gave a percent coimmunoprecipitated in assay [4] of less than 4%.

B3: vesicle-tethering factor p115 (rat liver Golgi) (natural protein)
chain: MNFLRGVMGGQSAGPQHTEAETIQKLCDRVASSTLLDDRRNAVRALKSLSKKYRLEVGIQAMEHLIHVLQTDRSDSEIIAYALDTLYNIISNDEEEEVEENSTRQSEDLGSQFTEIFIKQPENVTLLLSLLEEFDFHVRWPGVRLLTSLLKQLGPPVQQIILVSPMGVSKLMDLLADSREIIRNDGVLLLQALTRSNGAIQKIVAFENAFERLLDIITEEGNSDGGIVVEDCLILLQNLLKNNNSNQNFFKEGSYIQRMKAWFEVGDENPGWSAQKVTNLHLMLQLVRVLVSPTNPPGATSSCQKAMFQCGLLQQLCTILMATGIPADILTETINTVSEVIRGCQVNQDYFASVNAPSNPPRPAIVVLLMSMVNERQPFVLRCAVLYCFQCFLYKNEKGQGEIVATLLPSTIDATGNSVSAGQLLCGGLFSTDSLSNWCAAVALAHALQGNATQKEQLLRVQLATSIGNPPVSLLQQCTNILSQGSKIQTRVGLLMLLCTWLSNCPIAVTHFLHNSANVPFLTGQIAENLGEEEQLVQGLCALLLGISIYFNDNSLENYTKEKLKQLIEKRIGKENYIEKLGFISKHELYSRASQKPQPNFPSPEYMIFDHEFTKLVKELEGVITKAIYKSSEEDKKEEEVKKTLEQHDNIVTHYKNMIREQDLQLEELKQQVSTLKCQNEQLQTAVTQQASQIQQHKDQYNLLKVQLGKDNHHQGSHSDGAQVNGIQPEEISRLREEIEELRSHQVLLQSQLAEKDTVIENLRSSQVSGMSEQALATCSPRDAEQVAELKQELSALKSQLCSQSLEITRLQTENSELQQRAETLAKSVPVEGESELVTAAKTTDVEGRLSALLQETKELKNEIKALSEERTAIQKQLDSSNSTIAILQTEKDKLYLEVTDSKKEQDDLLVLLADQDQKILSLKSKLKDLGHPVEEEDESGDQEDDDDELDDGDRDQDI
In the case of B3, the percent coimmunoprecipitated in assay [4] is 4%.

B4: GST-Sed5p, cytosolic portion (domain or fragment)
chain: MNIKDRTSEFQQSVLSYKKRNKNFREQQRERLQEKESENFANNTTGNGKSVSEFQKKASGIAHEISSTAQLLSKLAVLAKRKPMFNDNPVEIAELSFLIKRKIYAIEQSLVQLSQLKKTDVNGNTSNQSSKQPSAVQHSKNVVNLLNTQMKNISGSFKDVLEERQRLEMANKDRWQKLTTDTGHAPADDQTQSNHAADLTTYNNSNPFMTSLLDESSEKNNNSSNQGELSFPQNDSQLMLMEEGQLSNNVYLQERNRAVETIESTIQEVGNLFQQLASMVQEQGEVIQRIDANVDDIDLNISGAQRELLKYFDRIKSNR
Consider B4, for which the binding result in assay [5] is reported as “binds”.

B5: GS28 (rat liver Golgi) (natural protein)
chain: MAAGTSNYWEDLRKQARQLENELDLKLVSFSKLCTSYSHSSARDGGRDRYSSDTTPLLNGSSQDRMFETMAIEIEQLLARLTGVNDKMAEYTHSAGVPSLNAALMHTLQRHRDILQDYTHEFHKTKANFMAIRERENLMGSVRKDIESYKSGSGVNNRRTELFLKEHDHLRNSDRLIEETISIAMATKENMTSQRGMLKSIHSKMNTLANRFPAVNSLIQRINLRKRRDSLILGGVIGICTILLLLYAFH
Regarding B5, the percent coimmunoprecipitated in assay [4] is less than 4%.

B6: GST-Sed5H3 (SNARE domain of Sed5p) (domain or fragment)
chain: FMTSLLDESSEKNNNSSNQGELSFPQNDSQLMLMEEGQLSNNVYLQERNRAVETIESTIQEVGNLFQQLASMVQEQGEVIQRIDANVDDIDLNISGAQRELLKYFDRIKSNRWLAAK
On to B6, for which, in assay [5], the binding result is reported as “binds”.
